{"source": "patent US20170252458A1", "about": "(EISAI R AND D MANAGEMENT, published 2017)", "key": {"[1]": {"target": "T1, Human folate receptor alpha on tumor cells (human, UniProt P15328 25-234)", "T1 sequence (P15328 25-234 limits assumed)": "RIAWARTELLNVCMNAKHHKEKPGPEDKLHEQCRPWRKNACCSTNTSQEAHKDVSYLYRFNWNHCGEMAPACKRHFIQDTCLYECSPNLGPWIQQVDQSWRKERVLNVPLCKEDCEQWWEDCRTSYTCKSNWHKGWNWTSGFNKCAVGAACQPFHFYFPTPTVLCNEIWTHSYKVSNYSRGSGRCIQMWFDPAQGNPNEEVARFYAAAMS", "experiment": "cell-based or functional assay"}, "[2]": {"target": "T1, Human folate receptor alpha on tumor …", "experiment": "cell-based or functional assay", "remark": "listed apart in the source"}, "[3]": {"target": "T2, Recombinant human mesothelin (human, UniProt Q13421 296-580, limits assumed)", "T2 construct": "also called MSLN", "T2 sequence (Q13421 other isoform, or with tags, fused parts or gaps limits assumed)": "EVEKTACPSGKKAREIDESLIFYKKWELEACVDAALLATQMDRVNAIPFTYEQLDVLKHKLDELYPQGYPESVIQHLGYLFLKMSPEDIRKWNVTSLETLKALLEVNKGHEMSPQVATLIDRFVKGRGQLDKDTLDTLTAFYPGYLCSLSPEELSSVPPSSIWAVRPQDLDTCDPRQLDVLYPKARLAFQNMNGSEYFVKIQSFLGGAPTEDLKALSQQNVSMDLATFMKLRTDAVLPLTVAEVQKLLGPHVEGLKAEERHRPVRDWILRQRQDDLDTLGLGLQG", "experiment": "Biacore T100, antibody captured on anti-human IgG, antigen injected, 1:1 Langmuir", "procedure": "Antibody concentrations were adjusted to 2 μg/mL in HBS-P+ buffer (GE Healthcare). Unmodified antibodies, or ADCs, were injected over an anti-human IgG sensor on a BIAcore T100 (GE Healthcare) for 1 min at a flow rate of 10 μL/min. To record the antigen association to the captured antibody, a series of increasing concentrations of antigen was injected for 300 sec at a flow rate of 30 μL/min. […] The dissociation of antigen was monitored for 30 min at the same flow rate. The sensor surface was regenerated by injecting 3 M MgCl₂ for 2×30 sec at a flow rate of 30 μL/min. Sensograms were analyzed with Biacore T100 Evaluation Software using a 1:1 Langmuir binding model.\nBinding affinities of the parental antibodies were determined by Biacore analysis, as described above in section 1.6.1. Aggregation levels for all anti-human mesothelin ADCs were determined by SEC-HPLC and the DAR was analyzed using HIC-HPLC. In vitro potency was evaluated using a Crystal Violet cell-based cytotoxicity assay in A3 (A431 stabily transfected with human mesothelin (MSLN), MSLN^hi), OVCAR3 (human ovarian, MSLN^hi), HEC-251 (human endometroid, MSLN^med), H226 (human lung squamous cell mesothelioma, MSLN^lo, and A431 parental (MSLN^neg) cells. The results of the DAR, aggregation, and cytotoxicity analyses are shown in Table 50."}}}
{"binder": "MORAb-003-VCP-eribulin (MORAb-202) (antibody, human IgG1, kappa, V domains shown, Mal-PEG2-Val-Cit-pAB-eribulin on interchain cysteines, sites not given) VH: EVQLVESGGGVVQPGRSLRLSCSASGFTFSGYGLSWVRQAPGKGLEWVAMISSGGSYTYYADSVKGRFAISRDNAKNTLFLQMDSLRPEDTGVYFCARHGDDPAWFAYWGQGTPVTVSS VL: DIQLTQSPSSLSASVGDRVTITCSVSSSISSNNLHWYQQKPGKAPKPWIYGTSNLASGVPSRFSGSGSGTDYTFTISSLQPEDIATYYCQQWSSYPYMYTFGQGTKVEIKR", "values": [{"measurement": "Cytotoxicity EC50 (nM), A431-A3 (FR+/-), Crystal Violet assay", "setting": "[1]", "value": 23, "unit": "nM"}, {"measurement": "Cytotoxicity EC50 (nM), IGROV I (FR+++), Crystal Violet assay", "setting": "[1]", "value": 0.01, "unit": "nM"}, {"measurement": "Cytotoxicity EC50 (nM), NCI-H2110 (FR++), Crystal Violet assay", "setting": "[1]", "value": 0.74, "unit": "nM"}, {"measurement": "Cytotoxicity EC50 (nM), OVCAR3 (FR++), Crystal Violet assay", "setting": "[1]", "value": 0.16, "unit": "nM"}, {"measurement": "IC50 (read off the curve), % survival of IGROV1 cells, conjugate alone", "setting": "[2]", "value": "~0.03", "unit": "nM"}, {"measurement": "IC50 (read off the curve), % survival of IGROV1 cells, in the presence of 2 µM unconjugated MORAb-003 as competitor", "setting": "[2]", "value": "~3", "unit": "nM"}]}
{"binder": "33011-zu (antibody, human IgG1, kappa, V domains shown, Humanized anti-human mesothelin with unpaired cysteine at LCcys80; parental (unconjugated) mAb in Biacore; also called 33O11 zu) VH: EVQLVESGGGLVQPGGSLRLSCAASGISLSSDAISWVRQAPGKGLEYIGIINGGGNTYYASWAKGRFTISRHNSKNTLYLQMNSLRAEDTAVYYCARGIQHGGGNSDYYYYGMDLWGQGTLVTVSS VL: DIQMTQSPSSLSASVGDRVTITCQASQSISSVLSWYQQKPGKAPKLLIYLASTLASGVPSRFSGSGSGTDFTLTISSLQCEDIATYYCQTNYGTSSSNYGFAFGGGTKVEIKR", "values": [{"measurement": "Kd", "setting": "[3]", "value": 3.4, "unit": "nM"}]}
{"binder": "111B10-xi (antibody, human IgG1, kappa, V domains shown, Rabbit-human chimeric anti-human mesothelin with unpaired cysteine at LCcys80; parental mAb in Biacore; also called 111810 xi) VH: QSVEESGGRLVTPGTPLTLTCTVSGFSLNNYAMSWVRQAPGKGLEWIGSISTGGLAFYANWAKGRFTISRTSTTVDLKMTSLTTEDTATYFCGRNGGGSYIFYYFDLWGQGTLVTVSS VL: AFELTQTPSSVEAAVGGTITIKCQASQSISSYLSWYQQKPGQPPKLLIYSASTLASGVSSRFKGSGSGTEYTLTISDLECADAATYFCQSYYDIGTSTFGGGTEVVVKR", "values": [{"measurement": "Kd", "setting": "[3]", "value": 6.3, "unit": "nM"}]}
{"binder": "346C6-zu (antibody, human IgG1, kappa, V domains shown, Humanized anti-human mesothelin with unpaired cysteine at LCcys80; parental mAb in Biacore) VH: EVQLVESGGGLVQPGGSLRLSCAASGFSLSSYAMIWVRQAPGKGLEWIGTISTGGITYYASWAKGRFTISRDNSKNTLYLQMNSLRAEDTAVYYCARGGYAASSAYYLPYYFDLWGQGTLVTVSS VL: DIQMTQSPSSLSASVGDRVTITCQSSQSVYNNNNLAWYQQKPGKVPKLLIYLASTLASGVPSRFSGSGSGTDFTLTISSLQCEDAATYYCLGGCDDDADTFAFGGGTKVEIKR", "values": [{"measurement": "Kd", "setting": "[3]", "value": 6.9, "unit": "nM"}]}
